This assay deals with HAdV-C5 virion (human adenovirus C5 (HAdV-C5), UniProt P04133 1-952; P12538 1-571; P11818 1-581, whole virion; only the major capsid proteins listed, minor/core proteins and DNA not named). As to the kind of experiment: SPR; Biacore T200; CD46 or CAR amine-coupled to a CM5 chip (2,390-2,640 RU CD46, 2,380-2,870 RU CAR); whole virions as analyte, twofold series 50-12.5 µg/mL, 120 s at 30 µL/min; 25°C, HBS-EP+ (10 mM HEPES, 150 mM NaCl, 3 mM EDTA, 0.005% P20, pH 7.4); performed once. To be noted: both partners purified. On the technique in general: In SPR one partner is held on a chip, and binding of the other changes the refractive index at the surface.

B1: coxsackievirus and adenovirus receptor (CAR) (receptor)
chain: LSITTPEEMIEKAKGETAYLPCKFTLSPEDQGPLDIEWLISPADNQKVDQVIILYSGDKIYDDYYPDLKGRVHFTSNDLKSGDASINVTNLQLSDIGTYQCKVKKAPGVANKKIHLVVLVKPSGARCYVDGSEEIGSDFKIKCEPKEGSLPLQYEWQKLSDSQKMPTSWLAEMTSSVISVKNASSEYSGTYSCTVRNRVGSDQCLLRLNVVPPSNKAGLIAGAIIGTLLALALIGLIIFCCRKKRREEKYEKEVHHDIREDVPPPKSRTSTARSYIGSNHSSLGSMSPSNMEGYSKTQYNQVPSEDFERTPQSPTLPPAKVAAPNLSRMGAIPVMIPAQSKDGSIV
notes: coxsackievirus and adenovirus receptor (CAR), coupled to the CM5 sensor chip; also called CXADR
On to B1, for which the affinity, expressed as Kd, was 1.1 pM.

A word on the Kd: it is a measure of binding affinity in units of concentration.
